Assay results reported in PMC9882672.

Target: ferroportin (human (endogenous in HEK 293)) (UniProt Q9NP59)
Chain of UniProt Q9NP59 (Q9NP59 whole entry): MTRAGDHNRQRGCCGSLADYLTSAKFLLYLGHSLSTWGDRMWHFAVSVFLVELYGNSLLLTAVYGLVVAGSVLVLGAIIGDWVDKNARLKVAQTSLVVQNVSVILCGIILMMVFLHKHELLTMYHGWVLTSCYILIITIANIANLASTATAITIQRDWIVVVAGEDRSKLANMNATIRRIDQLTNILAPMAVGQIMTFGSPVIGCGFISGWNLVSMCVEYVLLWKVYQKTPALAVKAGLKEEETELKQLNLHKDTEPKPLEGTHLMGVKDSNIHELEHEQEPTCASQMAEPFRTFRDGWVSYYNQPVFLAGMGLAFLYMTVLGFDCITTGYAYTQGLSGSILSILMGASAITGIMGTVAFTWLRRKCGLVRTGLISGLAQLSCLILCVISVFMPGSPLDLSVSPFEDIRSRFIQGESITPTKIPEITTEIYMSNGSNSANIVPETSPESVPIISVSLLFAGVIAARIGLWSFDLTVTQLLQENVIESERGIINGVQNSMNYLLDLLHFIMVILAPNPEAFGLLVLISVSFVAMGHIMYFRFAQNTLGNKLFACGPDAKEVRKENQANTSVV

Row | membrane Fpn of HEK 293 cells with 500 nM hepcidin for 5 to 60 minutes (membrane protein isolation, immunoblot), decrease compared to holo-Tf treatment [%] | membrane Fpn of HEK 293 cells with 0.25 μM holo-Tf for 5 to 60 minutes (membrane protein isolation, immunoblot), decrease compared to 0 minutes [%] | Substance
1 | 70 |  | hepcidin (peptide)
2 |  | 20 | holo (iron bound)-transferrin (from UniProt P02787 20-698) (natural protein)
